Numbering of substitutions follows the chain as printed.
Biological target: Prdm4-ZFD (UniProt Q80V63 582-760)
Assay: EMSA; EMSA as previously described (ref 41); 0.8% agarose gels for nuclear complexes, 5% acrylamide for purified His-tagged Prdm4; buffer, salt, pH and temperature not given
Conditions: protein: recombinant; tags: His-HA; 5' overhang 2 nt (GG) on each strand

Chain of Prdm4-ZFD (Q80V63 582-760): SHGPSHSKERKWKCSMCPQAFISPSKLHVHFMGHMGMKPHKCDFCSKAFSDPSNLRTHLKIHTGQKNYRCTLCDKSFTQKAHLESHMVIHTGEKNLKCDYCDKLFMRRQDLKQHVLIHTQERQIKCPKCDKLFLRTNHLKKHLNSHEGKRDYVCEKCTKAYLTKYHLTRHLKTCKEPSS

B1: wild-type Bahcc1 (dsDNA)
DNA 1: GGCCTGGGTCGGCCCGCGGGGATCCTGGAAACCGTCCCCGGTTTATCTCCTT
DNA 2: GGAAGGAGATAAACCGGGGACGGTTTCCAGGATCCCCGCGGGCCGACCCAGG
binding result: binds

B2: ΔGAAAC Bahcc1 (dsDNA)
DNA 1: B1 DNA 1 with G28T, A29C, A30C, A31C, C32A
DNA 2: B1 DNA 2 with G23T, T24G, T25G, T26G, C27A
binding result: no binding

From paper PMC3811882, “The PR/SET Domain Zinc Finger Protein Prdm4 Regulates Gene Expression in Embryonic Stem Cells but Plays a Nonessential Role in the Developing Mouse Embryo”
